# Measured values published in patent publication US20040234498A1 (Genentech, published 2004).
# T1: TNFR1 immunoadhesin (TNFR1 ECD fused to hinge and Fc portion of human IgG) (human, UniProt P19438 30-211, limits assumed)
# T1 construct: extracellular domain; also called TNFR1-IgG; not shown: hinge and Fc portion of human IgG, as described in Ashkenazi et al. 1991
# T1 sequence (looked up): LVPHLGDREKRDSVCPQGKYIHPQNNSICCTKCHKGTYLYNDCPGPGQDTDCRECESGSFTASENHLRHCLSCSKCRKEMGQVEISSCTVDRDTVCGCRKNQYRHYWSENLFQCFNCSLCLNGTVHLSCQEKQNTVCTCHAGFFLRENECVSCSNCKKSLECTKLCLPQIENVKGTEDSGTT
# T2: TNFR2 immunoadhesin (TNFR2 ECD fused to hinge and Fc portion of human IgG) (human, UniProt P20333 23-257, limits assumed)
# T2 construct: extracellular domain; not shown: hinge and Fc portion of human IgG, as described for TNFR1 in Ashkenazi et al. 1991
# T2 sequence (looked up): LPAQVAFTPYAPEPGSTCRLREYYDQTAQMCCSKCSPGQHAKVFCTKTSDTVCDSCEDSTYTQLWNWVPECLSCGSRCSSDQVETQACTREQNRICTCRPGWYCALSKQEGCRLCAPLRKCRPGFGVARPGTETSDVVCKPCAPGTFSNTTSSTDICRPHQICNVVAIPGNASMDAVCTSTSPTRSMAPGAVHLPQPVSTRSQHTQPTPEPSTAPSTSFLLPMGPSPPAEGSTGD
# T3: Apo-3 immunoadhesin (Apo-3 ECD fused to hinge and Fc portion of human IgG) (human, UniProt Q93038 25-199)
# T3 construct: extracellular domain; also called DR3; wsl-1; not shown: hinge and Fc portion of human IgG, as described for TNFR1 in Ashkenazi et al. 1991
# T3 sequence (looked up): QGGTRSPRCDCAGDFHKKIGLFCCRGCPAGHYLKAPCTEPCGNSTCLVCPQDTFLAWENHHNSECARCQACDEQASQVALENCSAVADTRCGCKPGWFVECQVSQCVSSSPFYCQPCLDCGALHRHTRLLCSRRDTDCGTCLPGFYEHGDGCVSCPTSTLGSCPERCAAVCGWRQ
# T4: DR4 immunoadhesin (DR4 ECD fused to hinge and Fc portion of human IgG) (human, UniProt O00220 24-239, limits assumed)
# T4 construct: extracellular domain; not shown: hinge and Fc portion of human IgG, as described for TNFR1 in Ashkenazi et al. 1991
# T4 sequence (looked up): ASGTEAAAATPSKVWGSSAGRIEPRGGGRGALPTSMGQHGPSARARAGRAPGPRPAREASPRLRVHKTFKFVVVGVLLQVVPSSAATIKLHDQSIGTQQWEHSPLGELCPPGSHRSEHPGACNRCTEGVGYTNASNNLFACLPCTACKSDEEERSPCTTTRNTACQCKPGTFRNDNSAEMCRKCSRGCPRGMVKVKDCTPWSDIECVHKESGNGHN
# T5: CD95 immunoadhesin (CD95 ECD fused to hinge and Fc portion of human IgG) (human, UniProt P25445 26-173, limits assumed)
# T5 construct: extracellular domain; also called Fas-IgG; Fas/Apo1; not shown: hinge and Fc portion of human IgG, as described for TNFR1 in Ashkenazi et al. 1991
# T5 sequence (looked up): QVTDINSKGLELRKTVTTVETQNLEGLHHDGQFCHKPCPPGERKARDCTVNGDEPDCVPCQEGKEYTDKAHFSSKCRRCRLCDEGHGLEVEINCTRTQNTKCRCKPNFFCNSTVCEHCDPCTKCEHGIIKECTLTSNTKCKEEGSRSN
# T6: human GITR (hGITR), full length, on cells (human, UniProt Q9Y5U5 26-241)
# T6 sequence (looked up): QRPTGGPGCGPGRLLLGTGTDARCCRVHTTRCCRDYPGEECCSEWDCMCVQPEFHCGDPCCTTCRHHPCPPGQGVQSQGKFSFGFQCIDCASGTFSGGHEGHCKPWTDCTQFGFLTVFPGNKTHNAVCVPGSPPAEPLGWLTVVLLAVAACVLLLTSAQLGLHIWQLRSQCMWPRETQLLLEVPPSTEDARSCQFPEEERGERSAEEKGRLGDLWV
# Legend:
# [1] = molecular target: T1, TNFR1 immunoadhesin (TNFR1 ECD fused to …); assay: FACS on HUVEC cells (endogenous DNA19355 transcripts)
# Procedure: The DNA19355 polypeptide was identified in a human umbilical vein endothelial cell (HUVEC) library, and the DNA19355 polypeptide transcripts are readily detectable in HUVEC by RT-PCR (data not shown). […] HUVEC cells were purchased from Cell Systems (Kirkland, Wash.) and grown in a 50:50 mix of Ham's F12 and Low Glucose DMEM media containing 10% fetal bovine serum, 2 mM L-glutamine, 10 mM Hepes, and 10 ng/ml basic FGF. Cells were FACS sorted with PBS, hGITR-IgG, TNFR1-IgG or Fas-IgG as a primary antibody and goat anti-human F(ab′)2 conjugated to phycoerythrin (CalTag, Burlingame, Calif.).
# [2] = molecular target: T2, TNFR2 immunoadhesin (TNFR2 ECD fused to …); assay: co-precipitation with protein A-sepharose, SDS-PAGE, autoradiography
# Procedure: (§1) A soluble DNA19355 polypeptide was also prepared by expressing the ECD in E. coli cells (as described in Example 3 above). The soluble DNA19355 ECD molecule was then labeled with ¹²⁵I. For comparison, immunoadhesin constructs were also made of the following TNF receptor family members: CD95, DR4, DR5, TNFR1, TNFR2, and Apo-3. CD95, DR4, DR5, TNFR1, TNFR2, and Apo-3 immunoadhesins were prepared by fusing each receptor's ECD to the hinge and Fc portion of human IgG, as described previously for TNFR1 [Ashkenazi et al., Proc. Natl. Acad. Sci., 88:10535-10539 (1991)]. The respective TNF receptor family members are described (and relevant references cited) in the Background of the Invention section.
# (§2) For the co-precipitation assay, each immunoadhesin (5 microgram) was incubated with ¹²⁵I-labeled soluble DNA19355 polypeptide (1 microgram) for 1 hour at 24° C., followed by protein A-sepharose for 30 minutes on ice. The reaction mixtures were spun down and washed several times in PBS, boiled in SDS-PAGE buffer containing 20 mM dithiothreitol and then resolved by SDS-PAGE and autoradiography.
# [3] = molecular target: T3, Apo-3 immunoadhesin (Apo-3 ECD fused to …); assay: as above
# Procedure: as §1, §2
# [4] = molecular target: T1, TNFR1 immunoadhesin (TNFR1 ECD fused to …); assay: as above
# Procedure: as §1, §2
# [5] = molecular target: T4, DR4 immunoadhesin (DR4 ECD fused to …); assay: as above
# Procedure: as §1, §2
# [6] = molecular target: T5, CD95 immunoadhesin (CD95 ECD fused to …); assay: as above
# Procedure: as §1, §2
# [7] = molecular target: T7, DR5 immunoadhesin (DR5 ECD fused to hinge and Fc portion of human IgG) (human, UniProt O14763 56-210, limits assumed); assay: as above
# T7 construct: extracellular domain; also called Apo-2; not shown: hinge and Fc portion of human IgG, as described for TNFR1 in Ashkenazi et al. 1991
# Procedure: as §1, §2
# [8] = molecular target: T6, human GITR (hGITR), full length, on …; assay: cell-based or functional assay
binding result [1],binding result [2],binding result [3],binding result [4],binding result [5],binding result [6],binding result [7],secreted TNF-alpha levels from primary human T cells (ELISA of culture supernatants) [8],Binder
no binding,–,–,–,–,–,–,–,"full length DNA19355 polypeptide on cells (ligand, also called full-length DNA19355 protein; GLITTER) MCLSHLENMPLSHSRTQGAQRSSWKLWLFCSIVMLLFLCSFSWLIFIFLQLETAKEPCMAKFGPLPSKWQMASSEPPCVNKVSDWKLEILQNGLYLIYGQVAPNANYNDVAPFEVRLYKNKDMIQTLTNKSKIQNVGGTYELHVGDTIDLIFNSEHQVLKNNTYWGIILLANPQFIS"
–,no binding,no binding,no binding,no binding,no binding,no binding,~20 fold,"soluble DNA19355 polypeptide (His10-tagged extracellular region, amino acids 52 to 177, expressed in E. coli) (ligand, 125I-labeled (radioiodinated) in the co-precipitation assay, also called soluble DNA19355 ECD molecule; radioiodinated soluble DNA19355 polypeptide) MGHHHHHHHHHHSSGHIDDDDKHMETAKEPCMAKFGPLPSKWQMASSEPPCVNKVSDWKLEILQNGLYLIYGQVAPNANYNDVAPFEVRLYKNKDMIQTLTNKSKIQNVGGTYELHVGDTIDLIFNSEHQVLKNNTYWGIILLANPQFIS"
